Laboratory results reported in article PMC8717942.

Legend:
[1] = biological target: biotinylated K29-linked diUb (chemically synthesized) (UniProt P0CG48); experiment: ELISA
[2] = biological target: K29-linked diubiquitin (UniProt P0CG48); experiment: Western blot
[3] = biological target: His-tagged K29-linked diubiquitin (UniProt P0CG48); experiment: SPR
[4] = biological target: K29-linked diubiquitin (UniProt P0CG48); experiment: crystal structure

B1: sAB-K29 (Fab, V domains shown)
VH: EVQLVESGGGLVQPGGSLRLSCAASGFNVSYSSIHWVRQAPGKGLEWVASIYSYYGSTYYADSVKGRFTISADTSKNTAYLQMNSLRAEDTAVYYCARYGFAGQPETWYAMDYWGQGTLVTVSS
VL: DIQMTQSPSSLSASVGDRVTITCRASQSVSSAVAWYQQKPGKAPKLLIYSASSLYSGVPSRFSGSRSGTDFTLTISSLQPEDFATYYCQQAYVEPITFGQGTKVEIK
EC50 [1]: 1.46 nM | fold more sensitive than for the other diUbs tested [2]: > 320 fold | lowest amount detected [2]: 0.78 ng | Kd [3]: 3.13 nM | stoichiometry N [4]: 1
